Consider one molecule from patent US20240409638A1 (AVACTA LIFE SCIENCES, published 2024).

The target of assay [1] is T1, murine serum albumin (MSA) (murine, UniProt P07724 25-608).
T1 construct: Bought reagent
Briefly: SPR (Biacore): immobilized ligand MSA (Sigma # A3559), AFFIMER as analyte, pH 7.0 by the legend.

In assay [2] the target is T2, human PD-L1-Fc (R&D Systems) (human, UniProt Q9NZQ7 19-239).
T2 construct: Bought reagent; also called huPD-L1-Fc; huPD-L1; not shown: Fc part of the bought fusion
T2 sequence (Q9NZQ7 19-239 limits assumed): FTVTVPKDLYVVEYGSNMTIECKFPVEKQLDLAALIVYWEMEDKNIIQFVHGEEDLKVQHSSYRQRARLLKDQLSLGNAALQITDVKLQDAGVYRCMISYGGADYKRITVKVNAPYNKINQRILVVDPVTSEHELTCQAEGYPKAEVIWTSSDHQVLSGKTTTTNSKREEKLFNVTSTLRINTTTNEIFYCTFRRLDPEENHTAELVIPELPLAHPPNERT
Briefly: human PD-L1-Fc binding ELISA: huPD-L1-Fc coated, anti-cystatin A detection, no HSA in the assay buffer. The method, then:
(§1) Plates were washed and AFFIMER® polypeptides were detected using streptavidin-HRP for 30 min. After the last washing step, the TMB substrate was added for the development of the experiment and plates were read at 450 nm. The EC₅₀ was then calculated using the interpolated non-linear four-parameters standard curve.
(In general: ELISA stands for enzyme-linked immunosorbent assay.)

Assay [3] deals with T3, human serum albumin (HSA) (human, UniProt P02768 25-609).
T3 construct: The assays used bought HSA (Sigma #A37812 in the SPR work); also called HuSA
T3 sequence (P02768 25-609): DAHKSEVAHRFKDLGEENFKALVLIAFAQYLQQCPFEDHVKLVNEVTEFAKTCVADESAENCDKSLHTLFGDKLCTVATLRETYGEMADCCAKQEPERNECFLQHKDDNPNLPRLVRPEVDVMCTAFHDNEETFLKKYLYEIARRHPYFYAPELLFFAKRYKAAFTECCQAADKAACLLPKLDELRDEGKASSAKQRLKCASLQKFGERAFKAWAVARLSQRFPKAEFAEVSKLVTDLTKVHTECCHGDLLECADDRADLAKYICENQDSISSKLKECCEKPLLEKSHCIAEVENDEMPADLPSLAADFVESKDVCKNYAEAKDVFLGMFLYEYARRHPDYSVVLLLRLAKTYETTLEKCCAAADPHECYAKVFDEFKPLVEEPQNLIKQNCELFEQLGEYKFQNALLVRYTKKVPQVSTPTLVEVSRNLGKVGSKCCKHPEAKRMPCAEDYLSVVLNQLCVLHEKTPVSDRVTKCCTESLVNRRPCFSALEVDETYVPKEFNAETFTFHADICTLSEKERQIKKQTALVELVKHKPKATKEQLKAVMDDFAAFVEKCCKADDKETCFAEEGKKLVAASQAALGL
Kind of assay: HSA binding ELISA: HSA coated, anti-cystatin A detection.

In assay [4] the target is PD-L1 on cells (NCI-H441 cells; aAPC PD-L1/CHO-K1 cells, Promega) (human, UniProt Q9NZQ7 19-290). Kind of assay: cell-based or functional assay.
Sequence of PD-L1 on cells (NCI-H441 cells; aAPC PD-L1/CHO-K1 cells, Promega) (Q9NZQ7 19-290): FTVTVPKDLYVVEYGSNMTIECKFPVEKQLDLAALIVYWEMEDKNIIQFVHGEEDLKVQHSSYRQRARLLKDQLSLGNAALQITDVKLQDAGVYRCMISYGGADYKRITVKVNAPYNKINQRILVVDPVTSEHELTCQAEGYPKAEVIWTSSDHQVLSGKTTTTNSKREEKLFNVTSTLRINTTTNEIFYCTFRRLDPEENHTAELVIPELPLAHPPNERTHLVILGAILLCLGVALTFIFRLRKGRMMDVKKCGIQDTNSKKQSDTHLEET
The target in assay [5] is T2, human PD-L1-Fc (R&D Systems). Briefly: SPR (Biacore 8K): human PD-L1-Fc amine-coupled on a CM5 chip, AFFIMER as analyte. On the technique in general: In SPR one partner is held on a chip, and binding of the other changes the refractive index at the surface.
The target of assay [6] is T3, human serum albumin (HSA). Briefly: HSA binding ELISA: HSA coated, bound AFFIMER detected with biotinylated anti-cystatin A antibody and streptavidin-HRP. The method, then:
as §1

Assay [7] deals with T2, human PD-L1-Fc (R&D Systems). Kind of assay: human PD-L1-Fc binding ELISA: huPD-L1-Fc coated, anti-cystatin A detection, with 10 µM HSA in the assay buffer. As for the experimental part:
as §1

Assay [8] shares this target. Kind of assay: SPR (Biacore) kinetics: human PD-L1-Fc immobilised on a CM5 chip, AFFIMER as analyte.
The target is the same in assay [9]. Kind of assay: SPR (Biacore 8K): human PD-L1-Fc amine-coupled on a CM5 chip, AFFIMER as analyte, 1:1 Langmuir fit.
Assay [10] has the same target. Kind of assay: SPR (Biacore) kinetics: human PD-L1-Fc immobilised on a CM5 chip, AFFIMER as analyte. This is another data set of the same source.
Assay [11] has the same target. Kind of assay: SPR (Biacore) kinetics: human PD-L1-Fc immobilised on a CM5 chip, AFFIMER as analyte (column KD (pM), the same fit as the KD (M) column).

B1: Clone 80 XT35 (anti-PD-L1 type III AFFIMER® XT in-line fusion dimer XT) (designed binder)
chain: MIPGGLSEAKPATPEIQEIVDKVKPQLEEKTGETYGKLEAVQYKTQVVRRKHFPQWPGTNYYIKVRAGDNKYMHLKVFKSLDLQPREVFQEDLVLTGYQVDKNKDDELTGFAEAAAKEAAAKEAAAKEAAAKEAAAKEAAAKMIPGGLSEAKPATPEIQEIVDKVKPQLEEKTGETYGKLEAVQYKTQVVRRKHFPQWPGTNYYIKVRAGDNKYMHLKVFKSLDLQPREVFQEDLVLTGYQVDKNKDDELTGFAEAAAKEAAAKEAAAKEAAAKEAAAKEAAAKMIPRGLSEAKPATPEIQEIVDKVKPQLEEKTNETYGKLEAVQYKTQVLANFFQRRWPGSTNYYIKVRAGDNKYMHLKVFNGPWKFRNTDRGADRVLTGYQVDKNKDDELTGFHHHHHH
notes: Made in E. coli; Two Clone 80 units are fused to one HSA-41; also called XT35_1; ILF trimer format
Turning to B1, the koff (commonly the first-order rate constant of dissociation) in [1] was 0.0474 s⁻¹; in assay [5] it was 7.12e-05 s⁻¹; in [8], 6.07e-05 s⁻¹; in assay [10], 0.000123 s⁻¹. Besides, the kon (usually the second-order rate constant of association) in assay [1] was 176000 M⁻¹ s⁻¹; in assay [5], 1.19e+06 M⁻¹ s⁻¹; in assay [8], 884000 M⁻¹ s⁻¹; in [10] it was 1.55e+06 M⁻¹ s⁻¹. Further, the EC50 – broadly, the concentration that produces a half-maximal response – in [2] turned out to be 0.036 nM; in assay [3], 1.03 nM; in assay [6], 0.03 nM; in assay [7], 0.04 nM. Also, the “IC50 of PD-1/PD-L1 blockade (% of inhibition, Promega NFAT-luciferase reporter cells)” value in [4] amounted to 131 nM. Moreover, the Kd (in general, a measure of binding affinity in units of concentration) in assay [5] came out at 0.06 nM; in assay [8] it was 0.0686 nM; in assay [9], 0.0391 nM; in assay [10], 0.0796 nM; in [11] it was 0.0796 nM.
